Target: SARS-CoV-2 spike RBD (SARS-CoV-2, UniProt P0DTC2 319-541)
Experiment: ALISA

Binder | binding result
TCGTTGGTGGCGGCGTGCCCGGGGCACGGGGACGTCTCGCACGGC (ssDNA) [S13 truncated (45-mer)] | no binding
TGGGAGCCTGGGACATAGTGGGGAAAGAGGGGAAGAGTGGGTCT (structured_DNA) [S14 truncated (44-mer)] | no binding
